Measured values reported in US20250250314.

Each substance was assayed on UCM12.
Chain of UCM12 (chain, as listed by the source, chain 1 of 3, other chains not shown): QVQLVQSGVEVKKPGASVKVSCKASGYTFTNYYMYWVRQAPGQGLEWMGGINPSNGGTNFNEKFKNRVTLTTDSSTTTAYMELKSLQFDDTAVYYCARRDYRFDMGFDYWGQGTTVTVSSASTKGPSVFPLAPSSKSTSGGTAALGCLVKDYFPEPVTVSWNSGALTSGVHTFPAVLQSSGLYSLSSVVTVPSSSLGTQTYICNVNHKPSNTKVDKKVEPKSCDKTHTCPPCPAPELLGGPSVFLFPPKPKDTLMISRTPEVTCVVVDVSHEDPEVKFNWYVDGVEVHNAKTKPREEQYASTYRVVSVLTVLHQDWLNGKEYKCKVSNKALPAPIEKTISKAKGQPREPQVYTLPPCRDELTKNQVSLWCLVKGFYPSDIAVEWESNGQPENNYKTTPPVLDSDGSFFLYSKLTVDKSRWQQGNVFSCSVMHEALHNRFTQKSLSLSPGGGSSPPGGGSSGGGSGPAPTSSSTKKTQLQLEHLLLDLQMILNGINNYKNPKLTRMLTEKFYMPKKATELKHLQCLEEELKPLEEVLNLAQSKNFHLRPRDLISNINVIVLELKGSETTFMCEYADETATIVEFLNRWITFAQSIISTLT
Chain of UCM12 (chain, as listed by the source, chain 2 of 3, other chains not shown): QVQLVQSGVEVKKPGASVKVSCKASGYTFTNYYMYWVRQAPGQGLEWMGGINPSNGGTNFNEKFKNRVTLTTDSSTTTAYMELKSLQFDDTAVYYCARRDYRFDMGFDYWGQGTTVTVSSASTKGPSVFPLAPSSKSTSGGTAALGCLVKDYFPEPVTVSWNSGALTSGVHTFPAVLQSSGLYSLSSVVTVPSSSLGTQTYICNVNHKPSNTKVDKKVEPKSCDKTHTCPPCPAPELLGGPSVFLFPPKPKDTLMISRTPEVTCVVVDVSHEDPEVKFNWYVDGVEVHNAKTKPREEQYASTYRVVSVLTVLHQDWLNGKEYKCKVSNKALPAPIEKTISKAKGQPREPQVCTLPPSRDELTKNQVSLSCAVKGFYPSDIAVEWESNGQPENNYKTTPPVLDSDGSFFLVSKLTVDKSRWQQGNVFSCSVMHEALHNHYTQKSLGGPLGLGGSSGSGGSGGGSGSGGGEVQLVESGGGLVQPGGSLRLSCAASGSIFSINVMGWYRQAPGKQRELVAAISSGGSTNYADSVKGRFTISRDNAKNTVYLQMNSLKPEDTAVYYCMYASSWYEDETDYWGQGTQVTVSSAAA

Chain of MMP8 (chain, as listed by the source): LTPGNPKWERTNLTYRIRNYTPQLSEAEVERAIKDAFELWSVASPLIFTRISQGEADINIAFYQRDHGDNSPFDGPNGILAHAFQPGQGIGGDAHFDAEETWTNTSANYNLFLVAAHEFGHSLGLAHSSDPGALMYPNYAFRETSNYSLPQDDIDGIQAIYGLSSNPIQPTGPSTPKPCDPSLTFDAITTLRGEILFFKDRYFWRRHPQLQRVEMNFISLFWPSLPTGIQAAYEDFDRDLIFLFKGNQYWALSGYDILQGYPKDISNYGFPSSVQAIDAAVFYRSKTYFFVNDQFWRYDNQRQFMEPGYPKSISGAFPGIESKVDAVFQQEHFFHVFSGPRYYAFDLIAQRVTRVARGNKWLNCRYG
Chain of MMP9 (chain, as listed by the source): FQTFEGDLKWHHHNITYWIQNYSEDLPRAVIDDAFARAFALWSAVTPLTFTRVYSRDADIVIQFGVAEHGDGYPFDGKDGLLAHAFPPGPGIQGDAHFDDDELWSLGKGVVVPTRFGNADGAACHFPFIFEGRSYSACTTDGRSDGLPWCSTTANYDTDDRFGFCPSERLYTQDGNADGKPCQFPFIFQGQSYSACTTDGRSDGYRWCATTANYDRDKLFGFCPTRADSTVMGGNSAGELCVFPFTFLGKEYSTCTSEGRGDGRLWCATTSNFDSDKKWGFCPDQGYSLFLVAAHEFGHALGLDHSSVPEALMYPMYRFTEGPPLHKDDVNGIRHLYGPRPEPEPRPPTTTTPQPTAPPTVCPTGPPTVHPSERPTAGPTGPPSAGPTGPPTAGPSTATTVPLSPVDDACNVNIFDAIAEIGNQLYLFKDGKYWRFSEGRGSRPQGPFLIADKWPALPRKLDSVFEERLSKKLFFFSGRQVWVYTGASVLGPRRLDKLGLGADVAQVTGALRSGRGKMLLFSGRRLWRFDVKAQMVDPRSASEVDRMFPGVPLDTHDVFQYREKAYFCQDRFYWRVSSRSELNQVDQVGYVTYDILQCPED
Chain of Cathepsin L (chain, as listed by the source): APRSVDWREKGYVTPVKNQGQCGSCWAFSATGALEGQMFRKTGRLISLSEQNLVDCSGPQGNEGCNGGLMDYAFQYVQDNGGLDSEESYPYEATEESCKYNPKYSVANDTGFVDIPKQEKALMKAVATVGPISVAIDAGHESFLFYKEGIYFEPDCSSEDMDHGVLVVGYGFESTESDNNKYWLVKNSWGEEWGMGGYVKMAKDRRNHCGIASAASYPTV

Substance | kcat/Km
Cathepsin L | 14000 M⁻¹ s⁻¹
MMP8 | 810 M⁻¹ s⁻¹
MMP9 | 7900 M⁻¹ s⁻¹
